In patent US20210206865A1 (Regeneron, published 2021):
Where a chain is given by its changes, count along the chain named.

B1: bsAb25441D bispecific antibody (REGN5458), anti-BCMA x anti-CD3 (bispecific antibody, human IgG4 S228P, kappa)
heavy 1: EVQLVESGGGLVQPGGSLRLSCAASGFTFSNFWMTWVRQAPGKGLEWVANMNQDGSEKYYVDSVKGRFTISRDNAKSSLYLQMNSLRAEDTAVYYCARDREYCISTSCYDDFDYWGQGTLVTVSSASTKGPSVFPLAPCSRSTSESTAALGCLVKDYFPEPVTVSWNSGALTSGVHTFPAVLQSSGLYSLSSVVTVPSSSLGTKTYTCNVDHKPSNTKVDKRVESKYGPPCPPCPAPPVAGPSVFLFPPKPKDTLMISRTPEVTCVVVDVSQEDPEVQFNWYVDGVEVHNAKTKPREEQFNSTYRVVSVLTVLHQDWLNGKEYKCKVSNKGLPSSIEKTISKAKGQPREPQVYTLPPSQEEMTKNQVSLTCLVKGFYPSDIAVEWESNGQPENNYKTTPPVLDSDGSFFLYSRLTVDKSRWQEGNVFSCSVMHEALHNHYTQKSLSLSLGK
heavy 2: EVQLVESGGGLVQPGRSLRLSCAASGFTFDDYSMHWVRQAPGKGLEWVSGISWNSGSKGYADSVKGRFTISRDNAKNSLYLQMNSLRAEDTALYYCAKYGSGYGKFYHYGLDVWGQGTTVTVSSASTKGPSVFPLAPCSRSTSESTAALGCLVKDYFPEPVTVSWNSGALTSGVHTFPAVLQSSGLYSLSSVVTVPSSSLGTKTYTCNVDHKPSNTKVDKRVESKYGPPCPPCPAPPVAGPSVFLFPPKPKDTLMISRTPEVTCVVVDVSQEDPEVQFNWYVDGVEVHNAKTKPREEQFNSTYRVVSVLTVLHQDWLNGKEYKCKVSNKGLPSSIEKTISKAKGQPREPQVYTLPPSQEEMTKNQVSLTCLVKGFYPSDIAVEWESNGQPENNYKTTPPVLDSDGSFFLYSRLTVDKSRWQEGNVFSCSVMHEALHNRFTQKSLSLSPGK
light: not shown
notes: Anti-BCMA arm from mAb21581, anti-CD3 arm and common light chain from mAb7221G; also called bsAb25441D9; mAb25441D
B2: bsAb25442D bispecific antibody (REGN5459), anti-BCMA x anti-CD3 (bispecific antibody, human IgG4 S228P, kappa)
heavy 1: B1 heavy 1
heavy 2: B1 heavy 2 with K58I, H108Y, L111M
light: not shown
notes: Anti-BCMA arm from mAb21581, anti-CD3 arm and common light chain from mAb7221G20; also called mAb25442D; mAb25442D-A647

Experiments:
[1] = target: T1, human BCMA on the surface of cell lines (NCI-H929, MM.1S, OPM-2, RPMI-8226, Daudi, Raji, MOLP-8, U266) (human, UniProt Q02223 1-184); assay: cell-based or functional assay
T1 sequence: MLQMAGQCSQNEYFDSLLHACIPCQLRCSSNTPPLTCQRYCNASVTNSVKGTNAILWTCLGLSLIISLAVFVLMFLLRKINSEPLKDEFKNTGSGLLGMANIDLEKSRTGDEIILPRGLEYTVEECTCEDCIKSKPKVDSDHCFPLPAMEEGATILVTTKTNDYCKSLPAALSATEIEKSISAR

[2] = target: T1, human BCMA on the surface of cell lines …; assay: cell-based or functional assay; remark: listed apart in the source
[3] = target: T1, human BCMA on the surface of cell lines …; assay: cell-based or functional assay; remark: listed apart in the source
[4] = target: T2, human BCMA-MMH (extracellular domain of human BCMA with C-terminal myc-myc-hexahistidine tag) (human); assay: SPR Biacore, 25 C, mAb captured via anti-hFc
T2 construct: Monomeric antigen; also called hBCMA.mmh; hBCMA.mmH
T2 chain: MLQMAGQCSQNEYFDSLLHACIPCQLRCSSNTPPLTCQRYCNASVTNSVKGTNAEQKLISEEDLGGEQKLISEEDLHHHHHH
Experimental: The CM5 Biacore sensor surface was derivatized by amine coupling with a monoclonal mouse anti-human Fc antibody (GE, #BR-1008-39) to capture purified anti-BCMA mAbs and anti-BCMA×anti-CD3 bispecific mAbs. All Biacore binding studies were performed in a buffer composed of 0.01M HEPES pH 7.4, 0.15M NaCl, 3 mM EDTA, 0.05% v/v Surfactant P20 (HBS-ET running buffer). […] Antigen samples were then injected over the anti-BCMA and anti-BCMA×anti-CD3 bispecific mAbs captured surfaces at a flow rate of 30 μL/minute. Antibody-reagent association was monitored for 5 minutes while dissociation in HBS-ET running buffer was monitored for 10 minutes. All of the binding kinetics experiments were performed at 25° C. Kinetic association (kₐ) and dissociation (kd) rate constants were determined by fitting the real-time sensorgrams to a 1:1 binding model using Scrubber 2.0c curve fitting software. Binding dissociation equilibrium constants (KD) and dissociative half-lives (t1/2) were calculated from the kinetic rate constants as: […]

[5] = target: T3, cynomolgus CD3 on cells (mfCD3 engineered Jurkat cells, primary cynomolgus CD8+ T cells) (cynomolgus, UniProt Q95LI5 22-198; Q95LI8 22-171); assay: flow cytometry, primary cynomolgus CD8+ T cells, median EC50, n=1
T3 construct: whole, on cells; The engineered Jurkat line expresses cynomolgus CD3 epsilon and delta in place of the human versions (other chains remain human); primary cynomolgus T cells carry the whole cynomolgus complex; also called Jurkat-mfCD3; Mf (Cyno) CD3
Experimental: Flow cytometric analysis was utilized to determine binding of BCMA×CD3 bispecific antibodies to human and cynomolgus CD3 (Jurkat cells, mfCD3 engineered Jurkat cells, primary human CD8+ and cynomolgus CD8+ T cells). Briefly, 1e05 cells/well were incubated in the presence of FACS wash with block (PBS+1% filtered FBS+5% mouse serum) with a serial dilution of BCMA×CD3 and control antibodies for 30 minutes on ice. After incubation, the cells were washed twice with cold FACS wash (PBS+1% filtered FBS) and bound antibody was detected by incubating with Alexa647-conjugated anti-human secondary antibody on ice for an additional 30 minutes. Wells containing no antibody or secondary only were used as a control. For the detection of monkey and human T cells, a cocktail of human and cynomolgus cross-reactive antibodies to CD4, CD8 and CD16 was added to the anti-human secondary. After incubation, cells were washed, re-suspended in 200 μL cold PBS containing 1% filtered FBS and analyzed by flow cytometry on a BD FACS Canto II. Cells were gated by FSC-H by FSC-A to select singlet events, followed by side and forward scatters to select for live events. For monkey T cells, additional gating on CD8+/CD16-cells was performed.
EC50 values for FACS binding were calculated using 4-parameter non-linear regression analysis in Prism software.

[6] = target: T1, human BCMA on the surface of cell lines …; assay: flow cytometry, Alexa647 conjugate on MM.1S cells
Experimental: (§1) Cells were then washed and fixed for 25 mins at 4° C. using a 50% solution of BD Cytofix (BD, Cat #554655) diluted in PBS. […] After gating for live cells and single cells, the mean fluorescent intensity (MFI) was determined, and MFI values were plotted in Graphpad Prism using a four-parameter logistic equation over a 10-point response curve to calculate EC₅₀s. The zero condition for each dose-response curve is also included in the analysis as a continuation of the two-fold serial dilution and is represented as the lowest dose.

[7] = target: T1, human BCMA on the surface of cell lines …; assay: flow cytometry, Alexa647 conjugate on OPM-2 cells
Experimental: as §1

[8] = target: T1, human BCMA on the surface of cell lines …; assay: flow cytometry, Alexa647 conjugate on NCI-H929 cells
Experimental: as §1

[9] = target: T1, human BCMA on the surface of cell lines …; assay: flow cytometry, Alexa647 conjugate on RPMI-8226 cells
Experimental: as §1

T3 sequence (Q95LI5 22-198, stated change not applied, chain 1 of 2): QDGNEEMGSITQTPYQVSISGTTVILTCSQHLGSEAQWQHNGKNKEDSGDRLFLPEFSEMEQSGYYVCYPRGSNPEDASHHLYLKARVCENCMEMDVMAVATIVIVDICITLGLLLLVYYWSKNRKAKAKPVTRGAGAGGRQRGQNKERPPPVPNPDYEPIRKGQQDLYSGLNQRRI
T3 sequence (Q95LI8 22-171, stated change not applied, chain 2 of 2): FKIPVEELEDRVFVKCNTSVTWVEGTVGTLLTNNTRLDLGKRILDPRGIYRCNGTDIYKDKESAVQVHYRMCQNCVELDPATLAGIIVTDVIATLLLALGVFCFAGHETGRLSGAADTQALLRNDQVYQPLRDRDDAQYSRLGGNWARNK

Binder | Median EC50, % Survival of H929 target cells, human effector cells [1] [nM] | Median EC50, % Survival of MM1S target cells, human effector cells [1] [nM] | Median EC50, % Survival of U266 target cells, human effector cells [1] [nM] | Median EC50, % T activation with H929 target cells, human effector cells [1] [nM] | Median EC50, % T activation with MM1S target cells, human effector cells [1] [nM] | Median EC50, % T activation with U266 target cells, human effector cells [1] [nM] | Median EC50, % Survival of Molp8 target cells, human effector cells [2] [nM] | Median EC50, % Survival of RPMI8226 target cells, human effector cells [2] [nM] | Median EC50, % T activation with Molp8 target cells, human effector cells [2] [nM] | Median EC50, % T activation with RPMI8226 target cells, human effector cells [2] [nM] | Median EC50, % Survival of H929 target cells, cynomolgus effector cells [3] [nM] | Median EC50, % T activation with H929 target cells, cynomolgus effector cells [3] [nM] | 90 nM hBCMA.mmh Bind (RU) [4] [RU] | Kd [4] [nM] | t1/2 [4] [min] | also measured
B1 | 0.103 | 0.0646 | 0.328 | 0.211 | 0.0706 | 0.107 | 0.707 | 0.0345 | 1.1 | 0.0649 | 0.0234 | 0.0683 | 19.9 | 1.06 | 13.2 | EC50 [5]: 46.6 nM
B2 | 0.301 | 0.288 | 1.66 | 0.3 | 0.458 | 0.469 | 1.36 | 0.106 | 6.47 | 0.75 | 0.0692 | 0.158 | 17 | 1.38 | 11.5 | koff [4]: 0.00101 s⁻¹; kon [4]: 730000 M⁻¹ s⁻¹; EC50 [6]: 83 nM; S/N (ratio of mAb25442D-A647 MFI to Isotype-A647 MFI) [6]: 43; EC50 [7]: 57 nM; S/N (ratio of mAb25442D-A647 MFI to Isotype-A647 MFI) [7]: 19; EC50 [8]: 79 nM; S/N (ratio of mAb25442D-A647 MFI to Isotype-A647 MFI) [8]: 470; EC50 [9]: 27 nM; S/N (ratio of mAb25442D-A647 MFI to Isotype-A647 MFI) [9]: 9
